From the supplement of paper PMC9170038

System: K4 kissing-loop RNA reporter
Experiment: apparent KD of K4 kissing-loop reporter; higher = weaker reporter binding
Settings: Eterna round: R107
Procedure: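 RNA-MaP round R107: designed RNA switches with theophylline, tryptophan, arginine or FMN aptamers are transcribed on-chip within common flanks. They are titrated with a labelled K4 kissing-loop RNA reporter in RNA-MaP buffer (100 mM Tris pH 7.5, 80 mM KCl, 4 mM MgCl2), without ligand or with the indicated ligand. Median apparent KD per design.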

[1] = input ligand: theophylline 20 uM
[2] = input ligand: tryptophan 2.4 mM
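Also: bound reporter read as fluorescence of individual clusters on recovered sequencing chips by microscopy, with normalized cluster intensities fitted with a binding model.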

Sequence	apparent KD of K4 kissing-loop reporter (input ligand: FMN 200 uM) [µM]	apparent KD of K4 kissing-loop reporter (input ligand: arginine 13.2 mM) [µM]	apparent KD of K4 kissing-loop reporter (input ligand: none) [µM]	apparent KD of K4 kissing-loop reporter [1] [µM]	apparent KD of K4 kissing-loop reporter [2] [µM]
AACUGUCAAGGACAACAUUACUGAAGUGAUACCAGCAUCGAAAGAUGCCCUUGGCAGCACUGACUUGCAGUGAUGUUGCAAGUAA [BrourdMod 7 - Jieux - Exclusion - Theophylline A]	0.211	0.165	0.194	0.2	0.194
AACUGUCAAGGCCAACAUUACUGAGGUGAUACCAGCAUCGAAAGAUGCCCUUGGCAGCACCGACUUGCAGUGAUGUUGCAAGUAA [BrourdMod 12 - Jieux - Exclusion - Theophylline A]	0.329	0.266	0.333	0.37	0.287
AAGAGCUAGGCGGCCGCCACUAGAUGUGAACACAUACAAACCAGUGAUGUUGGUAUGAUGGACAGUAGGACCGGGCCUAGCUGAA [Exclusion - Tryptophan B (Freestyle 10)]	0.998	0.585	1.01	1.35	0.995
AAGCAGUCACUCGAAACCAUCGAAGAUGGGCGAGGACCGGUACGGCCGCCACUCGGAGUGAUGUUCCGAAGACUGCAAAAUAAAA	0.377	0.348	0.592	0.443	0.354
AAGCAGUCACUCGAAGCCAUCGAAGAUGGUCGAGGACCGGUACGGCCGCCACUCGGAGUGAUGUUCCGAAGACUGCAAAAUAAAA [#SwitchBubble 11]	0.275	0.246	0.286	0.273	0.526
AAGCAGUCACUCGCAGCCAUCGAAGAUGGGCGAGGACCGGUACGGCCGCCACUCGGAGUGAUGUUCCGCAGACUGCAAAAUAAAA	0.536	0.343	0.35	0.437	0.428
AAGCAGUCUCUCGAAGCCAUCGAAGAUGGGCGAGGACCGGUACGGCCGCCACUCGGAGUGAUGUUCCGAAGACUGCAAAAUAAAA [MatMod 10 - Jieux - Exclusion - Tryptophan A]	0.281	0.223	0.396	0.243	0.308
AAGCCAGAGAUUGCUGCGGGUUCCAGAGAUACCAGCCGUAUUGAAGGCCCUUGGCAGCUCGAGUGAUGUUCGAGCCGUCUCUAGC [Bisore]	0.126	0.101	0.124	0.123	0.11
AAGCGUGUCGCGGCCGCCACUCCUGAGUGAUGUUCAGAAAGCAGUUUUUUAUUCAGGAAAAGCGCGAGGACCGGGCGACGCCGAU [theeternabot_sameState_KL_Trp_B_1]	0.367	0.207	0.46	0.328	0.515
AAGGCACGGCUUCGGCCGUGCCAAAUAGAUACCAGCAUAAUAAUAUGCCCUUGGCAGCUAAAUAUAAAUUCAGUGAUGUUGGAUA [SS Theo A Tesla 2.2]	0.573	0.412	0.604	0.649	0.546
AAGGGCGGGACUUUCUCGCCGGAUAGAGAUACCAGCCCAGCAAUGGGCCCUUGGCAGCUCACUGACCUCAGUGAUGUUGAGGUUC [Quintege]	0.31	0.214	0.213	0.208	0.185
AAGUAAUGUAUAGAUUAUAUACAUUAAACAGAGGAUAUGCAUUAUUGCAGAAGGCUGAAUGCAGUGAUGUUGCAAUAAUUAUUUA [JR_SSFMNA_Sub002]	0.0531	0.19	0.184	0.297	0.146
AAGUCAUAGGCAGGAUAUGCUUAGUAUUAAGGCCAUAUAUACGUAUAGAGUGAUGUUUUGUACCAGGCAGAAGGGCUACAUCCGU [FMN B Excl V5 (+2U)]	0.755	0.562	0.699	0.683	0.541
AAGUGAUGUUGUAGUGAUGUUGUGAUGUUGCAGGAUAUAUAGUGAUGUAGAAGGGUAAGUACUGUUUUUUUUUUUGAGUGAUGUU [ookooyzrmullin]	0.101	0.0417	0.0784	0.0675	0.0887
AAGUGAUGUUGUAGUGAUGUUGUGAUGUUGCAGGAUAUAUAGUGAUGUAGAAGGGUAUGUGCAGUUUUUUUUUUUGAGUGUUGAU [dpdmullin]	0.0766	0.0342	0.0599	0.0431	0.061
AAGUGUUCUAGUGAUACCAGACAUUUCUAUUACAUUAAUAUAGCUAAGUGAUGUUUAGCAGUCCCUUGGCAGCACUAUUUCACUA [JR_SSTheophyB_Sub015]	0.167	0.193	0.174	0.238	0.191
